Assay results: patent US20200216558A1 (US Dept. of Health and Human Services, published 2020)

T1: recombinant GPC2-hFc fusion protein (human, UniProt Q8N158 24-553)
T1 construct: range 24-553; Made in 293T cells with an IL-2 secretion signal (not part of the secreted protein); biotinylated for the Octet assay; also called GPC2 protein; recombinant human GPC2; not shown: human IgG Fc (hFc) at the C terminus
T1 sequence (looked up): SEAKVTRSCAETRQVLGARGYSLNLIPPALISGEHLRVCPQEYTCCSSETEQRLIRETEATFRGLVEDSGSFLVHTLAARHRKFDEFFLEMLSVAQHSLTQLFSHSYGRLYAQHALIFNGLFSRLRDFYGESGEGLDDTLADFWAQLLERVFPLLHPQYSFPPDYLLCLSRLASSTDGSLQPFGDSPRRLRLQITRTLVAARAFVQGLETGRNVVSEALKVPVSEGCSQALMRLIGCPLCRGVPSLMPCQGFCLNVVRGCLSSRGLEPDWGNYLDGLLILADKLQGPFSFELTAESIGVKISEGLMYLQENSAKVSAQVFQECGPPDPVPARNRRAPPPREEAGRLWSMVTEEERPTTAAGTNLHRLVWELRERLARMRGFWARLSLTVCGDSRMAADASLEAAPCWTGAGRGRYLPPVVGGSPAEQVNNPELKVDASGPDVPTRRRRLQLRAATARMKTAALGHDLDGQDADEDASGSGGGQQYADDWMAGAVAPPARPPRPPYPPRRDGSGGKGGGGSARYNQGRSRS

T2: recombinant mouse GPC2 (mouse, UniProt Q8BKV1 22-556, limits assumed)
T2 sequence (looked up): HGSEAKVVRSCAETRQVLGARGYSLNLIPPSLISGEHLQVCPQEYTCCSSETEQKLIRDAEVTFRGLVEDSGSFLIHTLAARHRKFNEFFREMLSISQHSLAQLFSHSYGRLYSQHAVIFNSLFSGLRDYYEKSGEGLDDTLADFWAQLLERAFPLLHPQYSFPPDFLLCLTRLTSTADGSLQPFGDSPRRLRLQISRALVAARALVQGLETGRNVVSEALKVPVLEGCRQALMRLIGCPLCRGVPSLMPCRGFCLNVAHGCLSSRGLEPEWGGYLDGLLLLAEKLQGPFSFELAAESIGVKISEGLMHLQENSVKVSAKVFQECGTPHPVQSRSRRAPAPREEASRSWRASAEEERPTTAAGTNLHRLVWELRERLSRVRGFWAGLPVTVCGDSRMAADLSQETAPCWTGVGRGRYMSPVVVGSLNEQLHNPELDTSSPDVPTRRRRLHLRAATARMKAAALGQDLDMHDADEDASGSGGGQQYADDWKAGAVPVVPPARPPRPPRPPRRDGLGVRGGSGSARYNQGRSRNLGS

T3: recombinant human GPC1 (human, UniProt P35052 24-530, limits assumed)
T3 sequence (looked up): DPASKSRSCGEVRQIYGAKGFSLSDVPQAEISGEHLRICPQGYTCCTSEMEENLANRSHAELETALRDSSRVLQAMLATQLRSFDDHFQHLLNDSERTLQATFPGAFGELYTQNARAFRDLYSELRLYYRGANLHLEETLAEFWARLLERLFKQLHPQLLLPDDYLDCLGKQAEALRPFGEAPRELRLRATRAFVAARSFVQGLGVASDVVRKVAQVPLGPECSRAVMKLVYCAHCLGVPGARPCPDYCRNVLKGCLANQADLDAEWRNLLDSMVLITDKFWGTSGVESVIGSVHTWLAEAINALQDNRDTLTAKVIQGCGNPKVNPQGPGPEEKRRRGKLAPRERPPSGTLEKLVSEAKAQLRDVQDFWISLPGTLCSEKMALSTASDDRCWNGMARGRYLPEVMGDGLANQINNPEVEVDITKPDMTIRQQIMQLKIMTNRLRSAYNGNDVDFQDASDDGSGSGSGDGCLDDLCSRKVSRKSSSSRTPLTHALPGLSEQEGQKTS

B1: LH7-PE38 monomeric immunotoxin (other)
VH: QVQLVQSGGGLVQPGGSLRLSCAASDFYFYDYEMSWVRQAPGKGLEWIGTVSYSGSTYYNPSLKSRVTISRDNSKNTLYLQMNTLRAEDTAMYYCARGYSYDDSRYFDYWGQGTLVTVSS
B2: LH7-Fc fusion protein (Fc fusion)
chain: B1 VH
notes: Soluble LH7 as used in Octet, flow cytometry and HEK293 Supertopflash assays; also called LH7 antibody; LH7 single domain antibody; not shown: Fc: antibodies were fused with either human Fc (hFc) or mouse IgG Fc (mFc); which one was used in this assay, its subcla
B3: LH1-PE38 (other)
VH: QVQLVQSGGGLVQPGGSLRLSCAASDFDFAAYEMSWVRQAPGKGLEWIGEINHSGSTTYNPSLKSRVTISRDNSKNTLYLQMNTLRAEDTAVYYCATAVHYYDSSGYYHDAFDIWGQGTLVTVSS
notes: One of the three immunotoxins of group m11; also called LH1-PE38 immunotoxin
B4: LH4-PE38 (other)
VH: QVQLVQSGGGLVQPGGSLRLSCAASSFYFDDYEMSWVRQAPGKALEWIGRIYTSGSTNYNPSLKSRVTISRDNSKNTLYLQMNTLRAEDTATYYCARGYCSGGSCYFDYWGQGTLVTVSS
notes: One of the three immunotoxins of group m11; also called LH4-PE38 immunotoxin
B5: VH single domain antibody LH1 (phage clone) (VHH)
VHH: B3 VH
notes: Human VH single domain (not camelid)
B6: VH single domain antibody LH2 (phage clone) (VHH)
VHH: QVQLVQSGGGLVQPGGSLRLSCAASDFYFYSYEVSWVRQAPGKALEWIGYIYYSGSTTYNPSLKSRVTISRDNSKNTLYLQMNTLRAEDTAIYYCAVRDNWNDVDYWGQGTLVTVSS
notes: Human VH single domain
B7: VH single domain antibody LH7 (phage clone) (VHH)
VHH: B1 VH
notes: Human VH single domain
B8: VH single domain antibody LH4 (phage clone) (VHH)
VHH: B4 VH
notes: Human VH single domain
B9: VH single domain antibody LH6 (phage clone) (VHH)
VHH: QVQLVQSGGGLVQPGGSLRLSCAASDFYFDDYEMSWVRQAPGKGLEWVSTISGSGGGTYYADSVKGRFTISRDNSKNTLYLQMNTLRAEDTATYYCARGYSYDDSRYFDYWGQGTLVTVSS
notes: Human VH single domain
B10: VH single domain antibody LH3 (phage clone) (VHH)
VHH: QVQLVQSGGGLVQPGGSLRLSCAASSFSFADYEMSWVRQAPGKALEWIGRIYTSGSTNYNPSLKSRVTISRDNSKNTLYLQMNTLRAEDTATYYCARGYSGYDGSHYFDYWGQGTLVTVSS
notes: Human VH single domain

What follows are binders tested against T1, recombinant GPC2-hFc fusion protein (assay: ELISA, coated GPC2-hFc, detection with anti-Pseudomonas exotoxin A antibody).
Method: Then a series of diluted immunotoxins were added to each well. Anti-Pseudomonas exotoxin A antibody (Sigma-Aldrich) and HRP-conjugated secondary antibody (Jackson Immunoresearch) were used to detect binding. EC₅₀ values were determined by Prism 6.0 software (GraphPad).

| Binder | EC50 [nM] |
| --- | --- |
| B1 | 18 |

What follows are binders tested against T1, recombinant GPC2-hFc fusion protein (assay: Octet RED96 biolayer interferometry, biotinylated GPC2-hFc on streptavidin biosensors, LH7 at 1000, 500 and 100 nM).
Method: (§1) Briefly, all experiments were performed at 30° C. and reagents were prepared in 0.1% BSA, 0.1% Tween20 PBS, pH 7.4 buffer. […] Data analysis was performed using the Fort\tilde{e}Bio analysis software provided with the instrument.

| Binder | koff [s⁻¹] | kon [M⁻¹ s⁻¹] |
| --- | --- | --- |
| B2 | 0.00052 | 53100 |

The binders below were run against T1, recombinant GPC2-hFc fusion protein (assay: ELISA on coated GPC2-hFc, detection with anti-Pseudomonas exotoxin A antibody and HRP secondary).

| Binder | EC50 [nM] | EC50 (read off the curve) [µg/mL] |
| --- | --- | --- |
| B3 | 4.55 | ~0.2 |
| B1 | 18.4 | ~1 |
| B4 | 43.9 |  |

These binders were tested against recombinant human GPC3 (human, UniProt P51654 25-559, limits assumed) (assay: monoclonal phage ELISA on recombinant glypicans).
Sequence of recombinant human GPC3 (P51654 25-559 limits assumed): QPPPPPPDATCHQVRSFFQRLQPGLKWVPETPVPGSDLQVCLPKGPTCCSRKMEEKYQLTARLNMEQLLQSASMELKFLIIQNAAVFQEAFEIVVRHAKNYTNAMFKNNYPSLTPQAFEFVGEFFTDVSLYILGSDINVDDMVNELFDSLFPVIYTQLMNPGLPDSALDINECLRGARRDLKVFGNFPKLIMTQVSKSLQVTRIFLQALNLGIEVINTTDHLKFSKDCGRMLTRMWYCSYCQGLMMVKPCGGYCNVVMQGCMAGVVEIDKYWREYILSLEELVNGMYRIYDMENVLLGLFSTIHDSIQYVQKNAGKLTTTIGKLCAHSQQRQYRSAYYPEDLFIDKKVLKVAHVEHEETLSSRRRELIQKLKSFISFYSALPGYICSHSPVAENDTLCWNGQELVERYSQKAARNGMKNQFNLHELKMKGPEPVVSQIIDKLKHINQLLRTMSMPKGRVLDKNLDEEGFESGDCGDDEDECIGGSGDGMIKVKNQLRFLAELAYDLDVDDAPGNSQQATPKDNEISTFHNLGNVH
Method: (§2) Both plate and phage were blocked with 3% skim milk in PBS/0.05% Tween-20 for 1 hour at room temperature. Then pre-blocked phage supernatant was added to the plate. Binding was detected by HRP-conjugated mouse anti-M13 antibody (GE Healthcare).

| Binder | binding result |
| --- | --- |
| B5 | no binding |
| B6 | no binding |
| B7 | no binding |
| B8 | no binding |
| B9 | no binding |

Each binder was assayed against T2, recombinant mouse GPC2 (assay: monoclonal phage ELISA on recombinant glypicans).
Method: as §2

| Binder | binding result |
| --- | --- |
| B10 | binds |
| B5 | no binding |
| B6 | no binding |
| B7 | no binding |
| B8 | binds |
| B9 | binds |

Each binder was assayed against T3, recombinant human GPC1 (assay: monoclonal phage ELISA on recombinant glypicans).
Method: as §2

| Binder | binding result |
| --- | --- |
| B10 | binds |
| B5 | no binding |
| B6 | no binding |
| B7 | no binding |
| B8 | no binding |
| B9 | no binding |

What follows are binders tested against T1, recombinant GPC2-hFc fusion protein (assay: monoclonal phage ELISA, coated GPC2-hFc vs BSA).
Method: as §2

| Binder | fold OD450 nm on GPC2-hFc over BSA [fold] |
| --- | --- |
| B10 | ≥ 5 |
| B5 | ≥ 5 |
| B6 | ≥ 5 |
| B7 | ≥ 5 |
| B8 | ≥ 5 |
| B9 | ≥ 5 |

These binders were tested against T1, recombinant GPC2-hFc fusion protein (assay: Octet RED96 BLI, biotinylated GPC2-hFc on streptavidin biosensors, 30 °C).
Method: as §1

| Binder | Kd [nM] |
| --- | --- |
| B2 | 9.8 |
